Reference: patent US20140369940A1 (Biogen, published 2014)
Ends that are not written are not given here.

T1: human α-synuclein pepscan peptide A02 (residues 5-20) (human, also: C-terminally coupled via flexible linker to cellulose membrane)
T1 construct: Printed as residues 5-20, although a 15-mer with 11 residues overlap to A01 would be 5-19
T1 peptide: MKGLSKAKEGVVAAAE

B1: recombinant human monoclonal antibody NI-202.12F4 (antibody, V domains shown)
VH: EVQLVQSGGGLVEPGGSLRLSCAVSGFDFEKAWMSWVRQAPGQGLQWVARIKSTADGGTTSYAAPVEGRFIISRDDSRNMLYLQMNSLKTEDTAVYYCTSAHWGQGTLVTVSS
VL: QSVLTQPPSVSVSPGQTARITCSGEALPMQFAHWYQQRPGKAPVIVVYKDSERPSGVPERFSGSSSGTTATLTITGVQAEDEADYYCQSPDSTNTYEVFGGGTKLTVL
notes: Lambda light chain; HEK293 or CHO conditioned medium
B2: recombinant human monoclonal antibody NI-202.21D11 (antibody, V domains shown)
VH: EVQLVESGAEVKKPGASVKVSCKASGYTFTNYAMHWVRQAPGQRLEWMGWINAGNGKRKYSQKFQDRVTINRDTSASTIYMELSSLGSEDTAVYYCAREEDHAGSGSYLSMDVWGQGTLVTVSS
VL: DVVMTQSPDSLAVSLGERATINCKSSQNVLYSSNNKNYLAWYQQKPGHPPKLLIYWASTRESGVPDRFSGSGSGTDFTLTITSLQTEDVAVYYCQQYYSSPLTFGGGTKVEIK
notes: Expressed recombinantly in HEK293 or CHO cells as a complete antibody (methods: human IgG1 or chimeric mouse IgG2a constant regions); conditioned medium used directly unless otherwise stated

Columns and labels:
[1] = biological target: T2, recombinant human β-synuclein (wt) (human, UniProt Q16143 1-134); assay: direct ELISA
T2 construct: also called wt β-synuclein

[2] = biological target: T1, human α-synuclein pepscan peptide A02 …; assay: pepscan, immunoblotting
Protocol: A membrane that comprises a total of 33 peptides was rinsed in methanol and then blocked with Rotiblock (Roth, Karlsruhe, Germany). The membrane was incubated with indicated antibodies diluted in blocking solution and then with horse radish peroxidase (HRP)-labeled secondary antibody for 1 hr. Between incubations the membrane was washed 3× with PBS-T for 5 min. The membrane was then developed using ECL plus Western Blotting Detection Reagents (GE Healthcare).
Adjacent peptides share an overlap of 11 residues and peptides were C-terminally spotted to a cellulose support membrane.

[3] = biological target: T3, synthetic biotinylated α-synuclein peptide 5-30 (human, biotinylated (position not given)); assay: in-solution ELISA, antibody coated at 2 µg/ml, biotinylated peptide
T3 construct: also called α-synuclein 5-30

[4] = biological target: recombinant α-synuclein truncation aa 1-60 (human, UniProt P37840 1-60); assay: direct ELISA

T2 sequence (Q16143 whole entry): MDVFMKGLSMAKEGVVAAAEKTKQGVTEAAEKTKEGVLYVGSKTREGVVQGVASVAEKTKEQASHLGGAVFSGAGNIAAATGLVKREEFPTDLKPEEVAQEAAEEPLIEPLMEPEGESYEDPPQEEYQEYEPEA

Binder | binding result [1] | binding result [2] | binding result [3] | binding result [4]
B1 | no binding | no binding | no binding | 
B2 |  |  |  | no binding (tested: coated at 2 ug/ml)
